The data set in a line: yeast display, Sf9 membrane polyspecificity reagent, FACS + sequencing; frameworks hold sequencing errors. The gist of the method: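 Genes from sorted yeast were amplified by colony PCR, read by MiSeq 2 × 250 sequencing and filtered on CDR length. These cells carried a synthetic nanobody library in Saccharomyces cerevisiae BJ5465 and were sorted by FACS into low and high (top ~1%) gates on anti-HA and streptavidin fluorescence. Polyreactivity is labelled according to the gate of origin.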
On to “QVQLVESGGGLVQAGGSLRLSCAASGLTFVYYAMGWYRQAPGKEMELVAAITSGGTTHYADSVKGRFTISRDNAKNTVYLQMNSLKPEDTAVYYCAATLGRWKRTYGYWGQGTQVTVSS”, for which the “polyreactivity (PSR sort gate)” value was “high polyreactivity”. As to “QVQLVESGGGLVQAGGSLRLSCAASGLTFWAYFMGWYRQAPGKEREFVAAITLSSGSTYYADSVKGRFTISRDNEKNTVYLQMNSLKPEYTAVYYCAATRDYGYWMYSWGQGTQGTVSS”, the “polyreactivity (PSR sort gate)” value is on record as “high polyreactivity”. For “QVQLVESGGGLVQAGGSLRLSCAASGLTFWFYAMGWYRQAPGKERELVASISRGGRTYYADSVKGRFTISRDNAKNTVYLQMNSLKPEDTAVYYCIADELYYEYKDYDYWGQGTQVTVSS”, the “polyreactivity (PSR sort gate)” value is reported as “low polyreactivity”. In the case of “QVQLVESGGGLVQAGGSLRLSCAASGLTFWKNVMGWYRQAPGKERELVAAISWSGDSTYYADSVKGRFTISRDNAKNTVYLQMNSLKPEDTAVYYCAARYVSRYWAGRYPTRQRDSWGQGTQVTVSS”, the “polyreactivity (PSR sort gate)” value is listed as “high polyreactivity”. The result for “QVQLVESGGGLVQAGGSLRLSCAASGLTFWLYAMGWYRPAPGKERELVAAITRSGGSTSYADSVKGRFTISRDNAKNTVYLQMNSLKPEDTAVYYCNADSPGYTAVRLVEFDYWGQGTQVTVSS” reads “low polyreactivity”; that for “QVQLVESGGGLVQAGGSLRLSCAASGLTFWWYAMGWYRQAPGKERELVAAISSSGGSTYYADSVKGRFTISRDNAKNTVYLQMNSLKPEDTAVYYCAVASWDNYWDPYGYWGQGTQVTVSS”, “low polyreactivity”; that for “QVQLVESGGGLVQAGGSLRLSCAASGLTFYAYAMGWYRQAPVKERELVAAISVRGRSTYYADSVKGRFTISRDIAKNTVFLQMNSLKPEDTAVYYCAAEFYRVQNFQFYYWGQGTQVTVSS”, “high polyreactivity”. The entry for “QVQLVESGGGLVQAGGSLRLSCAASGLTFYDYAMGWYRQAPGKERELVADIDFNGGSTSYADSVKGRFTISRDNAKNTVYLQMNSLKPEDSAVYYCNSRDRGDVVTGLDYWGQGTQVTVSS” is “low polyreactivity”; for “QVQLVESGGGLVQAGGSLRLSCAASGLTFYFYAMGWYRQAPGKERELVAAINSGGSTNYADSVKGRFTISRDNAKNTVYLQMNSLKPEDTAVYYCNADYYFTSYEYEYWGQGTQVTVSS” it is “low polyreactivity”; for “QVQLVESGGGLVQAGGSLRLSCAASGLTFYGYVMGWYRHAPGKERELVASISRSGGRTYYADSVKGRFTISRDNAKNTVYLQMNSLKAEDTAVYYCGAGDQVGQEDDYWGQGTQGTVSS” it is “low polyreactivity”.

As for “QVQLVESGGGLVQAGGSLRLSCAASGLTFYINDKGWYRQAPWKERELVAAINYSGGSTYYADSVKGRFTISRHNAKNTVYLQMNSLKPEDTAVYYCAADVSRWWGQHRYYSWGQGTQVTVSS”, the “polyreactivity (PSR sort gate)” value was “high polyreactivity”. Consider “QVQLVESGGGLVQAGGSLRLSCAASGLTFYLNAMGWYRQAPGKERELVAGISYTGGSTYYADSVKGRFTISRDNAKNTVYLQMNSLKPEDTAVYYCARDNFYYGVWDYGYWGQGTQVTVSS”, for which the “polyreactivity (PSR sort gate)” value is recorded as “low polyreactivity”. The result for “QVQLVESGGGLVQAGGSLRLSCAASGLTFYNYAMGWYIQAPGKERELVATITSSGARTYYADSVKGRFTISRDNAKNTVYLQMNSLTPEDTAVYYCAKQAYDQSPYNYWGQGTQVTVSS” reads “high polyreactivity”; that for “QVQLVESGGGLVQAGGSLRLSCAASGLTFYPNAMGWYRQAPGKERELVAGITSGGSTYYADSVKGRFTISRDNAKNTVYLQMNSLKPEDTAVYYCAAYYNFGDYEYDYWGQGTQVTVSS”, “low polyreactivity”; that for “QVQLVESGGGLVQAGGSLRLSCAASGLTFYPYAMGWYRQAPGKESELVAAINWSGTTTYYADSVKGRFTISRDNAKNTVYLQMNSLKPADTAVYYCNADVYYEPTTGYYLWDYDYWGQGTQVTVSS”, “low polyreactivity”. Regarding “QVQLVESGGGLVQAGGSLRLSCAASGLTFYQNDLGWYRQAPGKERELVAAITLSGDITYYADSVKGRFTISRDNAKNTVFLQMNSLKPEDTAVYYCNADLYVDPWTYFGYDYWGQGTQVTVSS”, the “polyreactivity (PSR sort gate)” value is on record as “low polyreactivity”. The result for “QVQLVESGGGLVQAGGSLRLSCAASGLTFYRNAMGRYRQAPGKERELVAAITASGGRTYYADSVKGRFTISRDNAKNTVYLQMNSLKPEVTAVYYCAADGKVQGGYYWGQGTQVTVSS” reads “high polyreactivity”; that for “QVQLVESGGGLVQAGGSLRLSCAASGLTFYRYAMGWYRQAPGKERELVAAIRVSGNTYYADSVKGRFTISRDNAKNTVYLQMNSLKPEDTAVFYCAAIPYYFYGMDYWGQGTQVTVSS”, “high polyreactivity”; that for “QVQLVESGGGLVQAGGSLRLSCAASGLTFYRYAMGWYRQAPGKERELVAAITSSGRTNYADSVKGRFTISRDNAKNTVYLQMNSLKPEDTAVYYCNAVRRTFNGPGSSQGYDYWGQGTQVTVSS”, “high polyreactivity”. Take “QVQLVESGGGLVQAGGSLRLSCAASGLTFYRYAMGWYRQAPGKERELVATIRSGDGTYYADSVKGRFTISRDNAMNTVYFKMNSLKPEDTAVYYCAAKKVYRVYGRYEYWGQGTQVTVSS”: the “polyreactivity (PSR sort gate)” value was “high polyreactivity”. The result for “QVQLVESGGGLVQAGGSLRLSCAASGLTFYVYAMGWYRQAPGKEREFVAAISWSGTSTSYADSVKGRFTISRDNAKNTVYLQMNSLKPEDTAVYYCAADSFASVYFGTGYDYWGQGTQVTVSS” reads “low polyreactivity”.

Regarding “QVQLVESGGGLVQAGGSLRLSCAASGLTFYWNAMGWYRQAPGKERELVASISQSSGNTYYADSVKGRFSISRDNAKNTVYLQMNSLKPEDTAVYYCAARNRPSLNRYYYWGQGTQVNVSS”, the “polyreactivity (PSR sort gate)” value is recorded as “low polyreactivity”. The result for “QVQLVESGGGLVQAGGSLRLSCAASGLTFYYYAMGWYRQAPGIEREFVAAINWDGGSTYYADSVKGRFTISRDKAKNTVYLQMNSLKPEDTAVYYCATGDTDYDYWGQGTQVTVSS” reads “low polyreactivity”. The entry for “QVQLVESGGGLVQAGGSLRLSCAASGLTFYYYAMGWYRQAPGKEREFVAAITRSGTNTYYADSVKGRFTISRDTAKNTVYLQMNSLKPEDTAVYYCAKTGYSFRVFRKYDWGQGTQVTVSS” is “high polyreactivity”; for “QVQLVESGGGLVQAGGSLRLSCAASGLTFYYYAMGWYRQAPGKERELVAAISATGGRTYYADSVKGRFTISRDNAKNTVYLQMNSLKPEDTAVYYCAADTPYLRRRLGMDYWGQGTQVTVSS” it is “high polyreactivity”. Turning to “QVQLVESGGGLVQAGGSLRLSCAASGLTFYYYAMGWYRQAPGKERELVAAISCSGGSTYYADSVKGRFTISRDNAKNTVYLQMNSLKPEDTAVYYCAAEGDYFLWYRYDYWGQGTQVTVSS”, the “polyreactivity (PSR sort gate)” value is “high polyreactivity”.

Regarding “QVQLVESGGGLVQAGGSLRLSCAASGLTFYYYAMGWYRQAPGKERELVAAISSVGSTYYADSVKGRFTISRDNAKNTVYLQRNSLKPEDTAVYYCAAKSYWWHEDYWGQGTQVTVSS”, the “polyreactivity (PSR sort gate)” value is on record as “low polyreactivity”. The result for “QVQLVESGGGLVQAGGSLRLSCAASGLTFYYYAMGWYRQATGKERELVATITRSGGGTYFADSVKGRFTISRDNAKNTVYLQMNSLKPEDTAVYYCAADLSWYVLFSGLYDYWGQGTQVTVSS” reads “high polyreactivity”; that for “QVQLVESGGGLVQAGGSLRLSCAASGLTFYYYDMGWYRQAPGKERELVAAITTDGSTNYADSVKGRFTISRDNAKNTVYLQMNSLKPEDTAVYYCAADKYYRYNYWGQGTQVTVSS”, “high polyreactivity”; that for “QVQLVESGGGLVQAGGSLRLSCAASGLTFYYYVMAWYRQAPGKERELVAAISRSGGSTRYADSVKGRFTISRDNANNTVYLQMNSLKPEDTAVYYCNAVRYPRLMYYWGQGTQVTVSS”, “high polyreactivity”. The result for “QVQLVESGGGLVQAGGSLRLSCAASGLTILPNAMGWYRPAPGKERELVAAISWGDGNTYYADSVKGRFTISRDNAKNTVYLQMNSLKPEDTAVYYCAADVIKSRTYDYWGQGTQVTVSS” reads “low polyreactivity”; that for “QVQLVESGGGLVQAGGSLRLSCAASGLTIRYYAMGWYRKAPGKERELVAAISSSGGRTYYADSVKGRFTISRDNAKNTVYLQMNSLKPEDTAVYYCSRDYGYGLMGYWGQGTQVTVSS”, “high polyreactivity”. In the case of “QVQLVESGGGLVQAGGSLRLSCAASGLTISAYAMGWYRQAPGKERELVAAITSSGGSTYADSVKGRFTISRDNAKNTVYLQMNSLKPEVTAVYYCAARVVRYGYKYYYWGQGTQVTVSS”, the “polyreactivity (PSR sort gate)” value is on record as “low polyreactivity”.

Take “QVQLVESGGGLVQAGGSLRLSCAASGLTISRYAMGWYRQAPGKEREFVASISISSVDTYYADSVKGRFTISRDNAKNTVYLQMNSLKPEDTAVYYCAAAGRVGVTRYYSWGQGTQVTVSS”: the “polyreactivity (PSR sort gate)” value is given as “high polyreactivity”.

Regarding “QVQLVESGGGLVQAGGSLRLSCAASGLTISWYAMGWYRQAPGKEWELVAAISTRGGRTYYADSVKGRFTISRDNAKNTVYLQMNSRKQEDNAVYYCAAGVYYRYLWLFDYWGQGTQVTVSS”, the “polyreactivity (PSR sort gate)” value is reported as “high polyreactivity”. With “QVQLVESGGGLVQAGGSLRLSCAASGLTIVQYAMGWYRQAPGKERELVARISRNGGSSYYADSVKGRFPISRDNAKNTVYLQMNSLKPEDTAVYYCNALRGPVKFYYWGQGTQVTVSS”, the “polyreactivity (PSR sort gate)” value is “low polyreactivity”.

As to “QVQLVESGGGLVQAGGSLRLSCAASGLTIWYYSMGLYRQAPGKEREFVAAITSRGGDTNYADSVKGRFTISRDNAKNTVYLQMNSLKPEDTAVYYCAVRPRYYGTYRYYYWGQGTQVTVSS”, the “polyreactivity (PSR sort gate)” value is on record as “high polyreactivity”. Regarding “QVQLVESGGGLVQAGGSLRLSCAASGLTLAGYAMGWYRQAPGKERELVAAITASGVRTYYADSVKGRFTISRDNAKNTVYLQMNSLKPEDTAVYYCAAGVQTQRGGYAIYRPGLRYYWGQGTQVTVSS”, the “polyreactivity (PSR sort gate)” value was “high polyreactivity”.

On to “QVQLVESGGGLVQAGGSLRLSCAASGLTLDKYAMGWYRPAPRKERELVAGINSRGGSTYADSVKGRFTISRDNAKNTVYLQMNSMKPEDTAVYYCAADGKVQGGYYWGQGTQVTVSS”, for which the “polyreactivity (PSR sort gate)” value was “high polyreactivity”. Turning to “QVQLVESGGGLVQAGGSLRLSCAASGLTLETNAMGWYRQAPGKERELVAGITYSGGTTYYADSVKGRFTISRDNAKNTVYLQMNSLKPEDTAVYYCAAHTRTSGHNYWGQGTQVTVSS”, the “polyreactivity (PSR sort gate)” value is reported as “low polyreactivity”. The result for “QVQLVESGGGLVQAGGSLRLSCAASGLTLGRNAMGWYRQAPGKERELVAAITQSGGSTYYADSVKGRFTISRDNAKNTVYLQMNSLKAEDTAVYYCAAEVVRQWHGIGYDYWGQGTQVTVSS” reads “low polyreactivity”.

For the origin of these results see the nanobody polyreactivity screen of Harvey et al. (2022).
